Results published in patent publication US20050002950.

Target: recombinant human C5a (UniProt P01031)
Sequence (P01031 678-751): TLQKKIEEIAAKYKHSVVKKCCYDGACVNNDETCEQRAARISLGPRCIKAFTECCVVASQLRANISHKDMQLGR

## ScpB, the C5a peptidase of GBS, on whole cells of strain COH1
  C5a protease activity (C5a-stimulated PMN adherence to gelatin-coated plastic after preincubating C5a with GBS): Preincubation of C5a with COH1 or TOH121 abolished C5a activity
